# Test results: patent US20060234926
# Biological target: beta2-microglobulin, native monomer (UniProt P61769)
# Experiment: SPR
# Conditions: at 0.5 uM RNA; 317 nM at 0.1 uM RNA; TMGA buffer pH 3.6
# beta2-microglobulin, native monomer, sequence (P61769 21-119): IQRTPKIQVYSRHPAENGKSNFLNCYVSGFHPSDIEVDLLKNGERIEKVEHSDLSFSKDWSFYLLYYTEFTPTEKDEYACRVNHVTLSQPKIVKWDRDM
sequence,measurement,value
GGCNUGACANGGCAGGAUAGCCGGNCNANGCGANCNNUNGGNCCNCGANACCCGACNGUGG [N4],Kd,104 nM
